Reference: patent US20240398942A1, “USE OF ANTI-CD40 ANTIBODY” (CHIA TAI TIANQING PHARMACEUTICAL GROUP CO., LTD., priority 2021, published 2024)
Values joined by “and” are separate entries in the source; they are usually repeats but may differ in a detail not shown here. Equal entries are not always repeated.

Assays:
[1] = Protein thermal shift assay (GloMelt); assay type: physicochemical; conditions: 25-99 °C melt curve
Procedure: A thermal stability assay was also conducted on humanized antibody huC1H1-V2. Tm (melting temperature) was determined by protein thermal shift assay using the GloMelt™ thermal shift protein stability kit (Biotium, Cat. No. 33022-T). Briefly, the GloMelt™ dye was thawed to room temperature. The vial containing the dye was vortexed and centrifuged. Then, 5 μL of the 200× dye solution was added to 95 μL of PBS to prepare a 10× dye solution. 2 μL of the 10× dye solution and 10 μg of the humanized antibody were added to the reaction system, and PBS was added to bring the total reaction volume to 20 μL. The centrifuge tubes containing the dye and the antibodies were centrifuged briefly and placed in a real-time PCR thermal cycler (Roche, LightCycler 480 II) in which the parameters of the Melt Curve program are shown in Table 4.

[2] = system: mouse colon carcinoma MC38 cells; experiment: In vivo anti-tumor efficacy, colon carcinoma MC38 xenograft model; conditions: for Tumor volume on day 0: baseline at grouping; for Tumor volume on day 0 / Tumor volume on day 14: mean ± standard error; for T/C: TRTV/CRTV, day 14 vs solvent; for TGI: day 14
Procedure: The in vivo anti-tumor activity of antibody huC1H1-V2 was further determined in humanized CD40 transgenic mice (also referred to as hCD40 mice). Briefly, 1×10^6 mouse colon carcinoma MC38 cells (Shanghai Lanli Biotech, LTD., CO.) were injected subcutaneously on the right back of hCD40 mice. The tumor volume was measured using an electronic vernier caliper and calculated according to the formula (length×width^2)/2. When the mean tumor volume reached about 100 mm^3, 18 tumor-bearing mice were selected and randomly divided into 3 groups (6 mice per group), with the date of grouping designated as day 0. According to the administration regimen shown in Table 8, the mice were intravenously administered with the solvent (phosphate buffered saline, or PBS) or antibody huC1H1-V2 via tail veins since day 1.

B1: huC1H1-V2: humanized C1H1 anti-CD40 antibody, VH SEQ ID NO: 20 X1=S, VL SEQ ID NO: 24 X1=K X2=F, human IgG2/κ (antibody, V domains shown)
VH: EVQLVESGGGLVKPGGSLRLSCAASGFTFSNYGISWVRQAPGKGLEWVXSISSGGDNTYYPDNVKGRFTISRDNAKNSLYLQMNSLRAEDTAVYYCARAGEKAMDYWGQGTLVTVSS
VL: EIVLTQSPATLSLSPGERATLSCRASQTINNNLHWYQQKPGQAPRLLIXYASQSISGIPARFSGSGSGTDFTLTISSLEPEDFAVYXCQQFSSWPLTFGGGTKVEIK
modifications: not fully specified; variable positions X1=S; VL X1=K X2=F; IgG2/kappa constant; VH of huC1H1-V1 to huC1H1-V4; VARIANT 49 X can be A or S; VL of huC1H1-V1 to huC1H1-V4; VARIANT 49 X can be K or Y; VARIANT 87 X can be F or Y
- Tm (melting temperature) [1]: 70 °C
- Tumor volume on day 0 ([2]; 3 mg/kg i.v. Q2D × 7 doses): 111 ± 5 mm^3
- Tumor volume on day 14 ([2]; 3 mg/kg i.v. Q2D × 7 doses): 1169 mm^3 and 1169 ± 217** mm^3
- T/C ([2]; 3 mg/kg i.v. Q2D): 36%
- TGI ([2]; 3 mg/kg i.v. Q2D): 64%
- Tumor volume on day 0 ([2]; 10 mg/kg i.v. Q2D × 7 doses): 113 ± 8 mm^3
- Tumor volume on day 14 ([2]; 10 mg/kg i.v. Q2D × 7 doses): 1446 mm^3 and 1446 ± 467* mm^3
- T/C ([2]; 10 mg/kg i.v. Q2D): 44%
- TGI ([2]; 10 mg/kg i.v. Q2D): 56%
- Tolerability (weight loss or any symptoms) ([2]; 3 and 10 mg/kg i.v. Q2D × 7 doses, tumor-bearing mice): well tolerated
